In US9012420B2, “Aptamer for chymase, and use thereof” (Ribomic Inc., priority 2009, dated 2015):
Oligonucleotides are written 5' to 3', each unit as a sugar letter and its base; * is a phosphorothioate linkage, no mark a phosphodiester; rarer units and linkages stand in square brackets, end groups in braces. Plain capitals give the bases only. r = 2'-OH (RNA); f = 2'-fluoro

T1: chymase (Homo sapiens, UniProt P23946 P23946:22-247)
T1 sequence: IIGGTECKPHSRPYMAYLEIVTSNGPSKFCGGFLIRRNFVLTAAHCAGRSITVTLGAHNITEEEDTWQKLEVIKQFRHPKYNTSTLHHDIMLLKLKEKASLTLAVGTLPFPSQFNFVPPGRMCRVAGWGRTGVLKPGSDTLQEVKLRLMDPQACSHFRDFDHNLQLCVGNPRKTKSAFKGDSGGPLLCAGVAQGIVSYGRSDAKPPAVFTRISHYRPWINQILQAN

T2: chymase (recombinant, manufactured by SIGMA) (Homo sapiens, UniProt P23946)
T2 construct: purchased SIGMA; host or cells: yeast
T2 sequence (P23946 22-247): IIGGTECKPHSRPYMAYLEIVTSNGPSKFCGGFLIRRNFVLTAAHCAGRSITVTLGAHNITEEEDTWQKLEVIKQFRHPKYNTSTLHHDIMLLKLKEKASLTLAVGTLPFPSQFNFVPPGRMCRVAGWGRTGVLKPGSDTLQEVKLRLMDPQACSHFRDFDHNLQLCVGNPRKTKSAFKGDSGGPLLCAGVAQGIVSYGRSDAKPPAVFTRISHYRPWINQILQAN

T3: chymase (Homo sapiens, UniProt P23946)
T3 sequence (P23946 22-247): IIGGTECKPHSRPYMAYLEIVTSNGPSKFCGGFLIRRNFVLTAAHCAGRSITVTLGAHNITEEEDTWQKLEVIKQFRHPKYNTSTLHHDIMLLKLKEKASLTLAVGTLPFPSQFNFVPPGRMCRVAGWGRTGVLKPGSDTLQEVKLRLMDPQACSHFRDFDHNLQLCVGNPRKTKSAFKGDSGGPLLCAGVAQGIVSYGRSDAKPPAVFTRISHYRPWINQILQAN


How the values were obtained:
chymase [1] = biological target: T1, chymase; experiment: inhibition; Suc-AAPF-MCA, 37 C, solution C; conditions: tags: recombinant, expressed in yeast, SIGMA
Method: Here, Suc is a protecting succinyl group, and MCA is a 4-methylcoumaryl-7-amide group; upon cleavage of the C-terminal side of phenylalanine, AMC (7-amino-4-methyl-coumarine) is released. By detecting the fluorescence of this AMC, the enzyme activity of chymase can be determined. The assay was performed using a 96-well plate (F16 Black Maxisorp Fluoronunc, manufactured by Nunc), with a reaction mixture volume of 100 μL, in solution C as a buffer solution. First, each nucleic acid was serially diluted to 0.0027-2 μM concentrations in solution C to obtain 50 μL solutions. After 10 μL of the 1 mM substrate prepared in solution C was added thereto, the plate was set to the microplate reader SpectraMax190 (manufactured by Molecular Devices Corporation), and incubated at 37° C. for 5 minutes. Separately, 0.05 μg (or 0.005 μg) of chymase (recombinant, manufactured by SIGMA) was diluted in solution C to obtain a 40 μL chymase solution, and incubated at 37° C. for 5 minutes. The chymase solution was added to the mixture of the nucleic acid and substrate to initiate an enzyme reaction. The final chymase concentration in the reaction mixture was 16.7 nM (or 1.67 nM), the final substrate concentration being 100 μM. The plate containing the reaction mixture was set to the microplate reader SpectraMax190 (manufactured by Molecular Devices Corporation), and examined for time-dependent changes in the fluorescence intensity at 37° C. for 5 minutes (or 30 minutes) (excitation wavelength 380 nm, detection wavelength 460 nm). A linear approximation of the increase in the fluorescence of the AMC released from the substrate by chymase activity was generated, and its slope was taken as the initial velocity […]. For control, samples were treated and analyzed in the same manner in two cases: use of a 30N or 40N (a nucleotide of 30 or 40 consecutive bases represented by N; N is A, G, C or T) nucleic acid pool (negative control), and use of chymostatin, a known chymotrypsin-like serine protease inhibitor (positive control). Taking the initial reaction velocity without the nucleic acid and inhibitor (V_0) as a 100% enzyme activity, the inhibitory rate of each test substance was calculated using the following equation: […]
The chymase inhibitory activity was measured in the same manner as in Example 3.

[2] = biological target: T2, chymase (recombinant, manufactured by SIGMA); experiment: Chymase inhibitory activity using synthetic substrate Suc-Ala-Ala-Pro-Phe-MCA; assay type: biochemical; conditions: Table 3; substrate 100 μM, solution C, 37° C.; mean value for 2 to 3 measurements
Method: A first method employs a synthetic substrate. A useful chymase substrate is Suc-Ala-Ala-Pro-Phe-MCA (4-methylcoumaryl-7-amide group) (manufactured by Peptide Institute, Inc.), which contains the 4-amino acid peptide “Ala-Ala-Pro-Phe”, a standard substrate for chymotrypsin-like proteases.
The assay is performed using a 96-well plate (F16 Black Maxisorp Fluoronunc, manufactured by Nunc), with a reaction mixture volume of 100 μL, in a buffer solution (solution C; see Example 2 below). First, each nucleic acid is prepared in solution C to obtain 50 μL solutions. After 10 μL of the 1 mM substrate prepared in solution C is added, the plate is set to the microplate reader SpectraMax190 (manufactured by Molecular Devices Corporation), and incubated at 37° C. for 5 minutes. Separately, 0.05 μg of chymase (recombinant, manufactured by SIGMA) is diluted in solution C, and 40 μL of this dilution is incubated at 37° C. for 5 minutes. The chymase solution is added to the mixture of the nucleic acid and substrate to initiate an enzyme reaction. The plate containing the reaction mixture is set to the microplate reader SpectraMax190 (manufactured by Molecular Devices Corporation), and examined for time-dependent changes in the fluorescence intensity at 37° C. for 5 minutes (excitation wavelength 380 nm, detection wavelength 460 nm). A linear approximation of the increase in the fluorescence of the AMC (7-amino-4-methylcoumarine) released from the substrate by chymase activity is generated, and its slope is taken as the initial reaction velocity. For control, samples are treated and analyzed in the same manner in two cases: use of a nucleic acid pool containing a random sequence of 30 or 40 nucleotides (negative control), and use of chymostatin, a known chymotrypsin-like serine protease inhibitor (positive control). Taking the initial reaction velocity without the nucleic acid and inhibitor as a 100% enzyme activity, the inhibitory rate for each test substance is calculated, and the inhibitor concentration required to cause a 50% inhibition of the enzyme activity (IC50) is determined.
Whether the nucleic acids shown by SEQ ID NO: 4-20, 22-34, and 38-48 inhibit the enzyme activity of chymase was determined as described below. The chymase substrate used was Suc-Ala-Ala-Pro-Phe-MCA (manufactured by Peptide Institute, Inc.), which contains the 4-amino-acid peptide Ala-Ala-Pro-Phe, a standard substrate for chymotrypsin-like proteases. Here, Suc is a protecting succinyl group, and MCA is a 4-methylcoumaryl-7-amide group; upon cleavage of the C-terminal side of phenylalanine, AMC (7-amino-4-methylcoumarine) is released. By detecting the fluorescence of this AMC, the enzyme activity of chymase can be determined. The assay was performed using a 96-well plate (F16 Black Maxisorp Fluoronunc, manufactured by Nunc), with a reaction mixture volume of 100 μL, in solution C as a buffer solution. First, each nucleic acid was serially diluted to 0.0027-2 μM concentrations in solution C to obtain 50 μL solutions. After 10 μL of the 1 mM substrate prepared in solution C was added thereto, the plate was set to the microplate reader SpectraMax190 (manufactured by Molecular Devices Corporation), and incubated at 37° C. for 5 minutes. Separately, 0.05 μg (or 0.005 μg) of chymase (recombinant, manufactured by SIGMA) was diluted in solution C to obtain a 40 μL chymase solution, and incubated at 37° C. for 5 minutes. The chymase solution was added to the mixture of the nucleic acid and substrate to initiate an enzyme reaction. The final chymase concentration in the reaction mixture was 16.7 nM (or 1.67 nM), the final substrate concentration being 100 μM. The plate containing the reaction mixture was set to the microplate reader SpectraMax190 (manufactured by Molecular Devices Corporation), and examined for time-dependent changes in the fluorescence intensity at 37° C. for 5 minutes (or 30 minutes) (excitation wavelength 380 nm, detection wavelength 460 nm). […]

chymase [3] = biological target: T3, chymase; experiment: Surface plasmon resonance (Biacore T100), aptamer immobilized on SA chip, chymase injected as analyte; assay type: binding; parameters: key: ++: a sequence that binds to chymase significantly more strongly than the negative control 40N; +: a sequence that binds to chymase equivalently compared with the negative control 40N; conditions: Table 1; about 1000 RU nucleic acid immobilized, chymase 0.2 μM analyte, running buffer solution A; compared with 40N
Method: Binding strength is measured using Biacore T100 (manufactured by GE Healthcare). In a method of measurement, the aptamer is first immobilized onto a sensor chip, the amount immobilized being about 1000 RU. 20 μL of a chymase solution for analyte, prepared at 0.2 μM, is injected, and the binding of chymase to the aptamer is detected. An RNA comprising a random nucleotide sequence of 30 or 40 nucleotides is used as a negative control.
The binding activities against chymase of the nucleic acids shown by SEQ ID NO: 4-20 and 22-34 were determined by the surface plasmon resonance method using Biacore T100 (manufactured by GE Healthcare). The sensor chip used was the SA chip, which had streptavidin immobilized thereon. Bound thereto was about 1500 RU of a 16-nucleotide Poly dT with biotin bound to the 5′ end thereof. […] 20 μL of chymase for analyte, prepared at 0.2 μM, was injected. Solution A was used as a running buffer.
The binding activities against chymase of the nucleic acids shown by SEQ ID NO: 38-48 were evaluated by the surface plasmon resonance method. In the evaluations for SEQ ID NO: 38-48, measurements were taken in the same manner as Example 1. Solution C was used as a running buffer.

Molecule	IC50 (chymase [1])	IC50 [2]	Binding activity as determined using Biacore (chymase [3])
GGGUUAGAUAGAGUUAAAAACCC (ssRNA, 2'-F U and C; 2'-OMe 1-3,7,8,10,16,17,19,20) [56(20)]	102 nM	–	–
GGGTTAGAUAGAGTUAAAAACCC (mixed, 2'-F U; 2'-OMe 1-3,7,8,10,13,17-20; DNA T4,T5,T14,A16,C21-C23; 5' and 3' idT) [72(4)]	65 nM	–	–
8 (nucleic acid, aptamer) rGrGrGrAfCrGrGfUrArGrGrArAfUfUfCfUrAfCrGrGfUfCfUrGfUrGfUrGrArArAfUfUrGrArArAfCrAfCrAfCrArArArGrArAfCrArAfUrArArAfCrAfUrArGrArArGrArGfCrGrGfCfCrGfC	–	453 ± 463 nM	++
10 (nucleic acid, aptamer) rGrGrGrAfCrGrGfUrArGrGrArAfUfUfCfCrGfCfCrGfCfCfUrArArArArArAfCrGrAfCrGrAfUrAfUfUrAfCrArGrArArAfCrGfUfCrArArAfUrAfCrAfUrArGrArArGrArGfCrGrGfCfCrGfC	–	> 500 nM	++
GGGUUAGAUAGAGUUAAAAACCC (mixed, 2'-F U and C; 2'-OMe 1-3,7,10,13,16-20; DNA A6; 5' and 3' idT) [56(49)]	69 nM	–	–
GGGUUAGAUAGAGUUAAAAACCC (ssRNA, 2'-F U and C; 2'-OMe 1-3,19,20; 5' and 3' idT) [56(24)]	38 nM	–	–
GGGUUAGAUAGAGUUAAAAACCC (ssRNA, 2'-F U and C; 2'-OMe 1-3,10,13,16-20; PS 6-7,7-8; 5' and 3' idT) [56(37)]	46 nM	–	–
15 (nucleic acid, aptamer) rGrGrGrAfCrGrGfUrArGrGrArAfUfUfCfCfCrArGrArArArAfUrArArAfUfUfCfCrGrArArGrArArArAfCrArAfCrArAfUfUfUfUfUrGfCrArArAfCrAfUrArGrArArGrArGfCrGrGfCfCrGfC	–	285 ± 21 nM	++
GGGUUAGAUAGAGUUAAAAACCC (mixed, 2'-F U and C; 2'-OMe 1-3,10,13,16-20; DNA G7,A8; 5' and 3' idT) [56(52)]	52 nM	–	–
GGGUUAGAUAGAGUUAAAAACCC (ssRNA, 2'-F U and C; 2'-OMe 1-3,10,13,16-20; PS 7-8; 5' and 3' idT) [56(36)]	97 nM	–	–
GGGUUAGAUAGAGUUAAAAACCC (ssRNA, 2'-F U and C; 2'-OMe 2,3,7,8,10,13,16-20; 5' and 3' idT) [56(40)]	51 nM	–	–
GGGUUAGAUAGAGUUAAAAACCC (ssRNA, 2'-F U and C; 2'-OMe 2,3,7,8,10,13,16-20; 5' PEG 40 kDa; 3' idT) [56(39)]	86 nM	–	–
11 (nucleic acid, aptamer) rGrGrGrAfCrGrGfUrArGrGrArAfUfUfCfCfCrGrAfCrAfCrGrArArAfUrGfUrGfUrGrAfUfUrArAfUfUfCfCrGrArAfCrArAfCrArArArGfUrArAfCrAfUrArGrArArGrArGfCrGrGfCfCrGfC	–	145 ± 36 nM	++
GGGTTAGAUAGAGTUAAAAACCC (mixed, 2'-F U; 2'-OMe 1-3,7,8,10,16-20; DNA T4,T5,G13,T14,C21-C23; 5' and 3' idT) [72(3)]	50 nM	–	–
GGGUUAGAUAGAGUUAAAAACCC (ssRNA, 2'-F U and C; 2'-OMe 7,8,10; 5' and 3' idT) [56(25)]	70 nM	–	–
9 (nucleic acid) rGrGrGrAfCrGrGfUrArGrGrArAfUfUfCfCfCrGrArArArArGfCrArAfCrArArGfCfUfUrGfCfUrArArArAfUrGrAfUfUfCfCrGrArArArArArAfCrAfCrAfUrArGrArArGrArGfCrGrGfCfCrGfC	–	273 ± 69 nM	++
12 (nucleic acid, aptamer) rGrGrGrAfCrGrGfUrArGrGrArAfUfUfCrGfCfCrGfUfCrArAfCrGfUfUrAfCrAfUrArAfUrGfUrAfUrAfUrAfCfCrArGrGrGfUrArAfCfUrArArAfCrAfUrArGrArArGrArGfCrGrGfCfCrGfC	–	128 ± 23 nM	++
GGGUUAGAUAGAGUUAAAAACCC (ssRNA, 2'-F U and C; 2'-OMe 2,3,7,8,10,13,16-20; PS 6-7; 5' and 3' idT) [56(41)]	53 nM	–	–
